Residue numbers refer to the chain shown, from its start.
Assays:
[1] = molecular target: T1, cynomolgus Tyro3 ECD, His-Strep tagged; test: sandwich ELISA, Strep-tagged cynomolgus Tyro3 ECD captured on StrepMAB plate, IgG 3-fold from 3 µg/mL, anti-human IgG1-HRP
T1 construct: also called cyno TYRO3 ECD 8hisstrep
T1 extracellular domain: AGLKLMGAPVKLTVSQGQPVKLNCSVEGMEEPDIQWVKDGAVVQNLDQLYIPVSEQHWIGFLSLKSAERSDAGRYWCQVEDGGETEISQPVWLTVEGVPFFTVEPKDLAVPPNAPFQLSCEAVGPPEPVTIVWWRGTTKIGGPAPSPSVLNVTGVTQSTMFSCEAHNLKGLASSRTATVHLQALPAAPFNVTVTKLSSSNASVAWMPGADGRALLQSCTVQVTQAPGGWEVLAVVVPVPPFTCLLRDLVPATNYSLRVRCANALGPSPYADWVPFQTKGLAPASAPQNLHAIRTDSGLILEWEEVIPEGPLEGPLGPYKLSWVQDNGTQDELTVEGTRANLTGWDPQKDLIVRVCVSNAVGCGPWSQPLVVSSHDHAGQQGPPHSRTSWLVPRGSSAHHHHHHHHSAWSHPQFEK
Protocol: [The procedure below names another species; the source lists this species under the same test.] (§1) A double sandwich ELISA was developed. This assay consisted in measuring the binding of the anti-Tyro3 antibodies to be tested on immobilized strep-tagged entire human Tyro3 ECD captured directly on ELISA plate pre-coated with an anti-strep mAb (StrepMAB-Immo coated microplates from IBA biotech). Briefly, the 96 wells of StrepMAB-Immo coated microplate were washed three times with 300 μL of the PBS Tween 0.2% (referred as ELISA washing solution). The capture of an excess of purified strep tagged hTyro3 ECD protein was achieved by a one hour incubation at room temperature. In these experiments, 3 μg of purified protein diluted in PBS, BSA 1% (referred as ELISA diluent solution) were immobilized per well. The wells were washed three times with 300 μL of the washing solution. The non-specific binding sites on the well surface were blocked during 60 min at room temperature with 200 μL/well of blocking solution (PBS, BSA 3%). The wells were washed five times with 300 μL of the washing solution. Then, 100 μl (in duplicates) of the different concentrations of anti-Tyro3 antibodies to be tested diluted in ELISA diluent solution, were added per well and allowed to incubate during 1 hour at room temperature. An Irrelevant control IgG2656 was also added in this experiment. For anti-Tyro3 antibodies in the ScFv format, experiments were performed with 6 concentrations in duplicates (FIG. 3A). For anti-Tyro3 antibodies in the IgG format, experiments were performed with 9 concentrations in duplicates (FIG. 3B). […] For IgGs experiments, starting concentration for first dilution was 3 μg/ml and then dilutions of 3 fold in the ELISA diluent solution were performed. The wells were washed five times with 300 μL of the washing solution. […] The mix was allowed to incubated 60 min at room temperature.

[2] = molecular target: T2, recombinant His-Strep tagged human Tyro3 extracellular domain (human, UniProt Q06418 41-429); test: sandwich ELISA, Strep-tagged hTyro3 ECD captured on StrepMAB plate, IgG 3-fold from 3 µg/mL, anti-human IgG1-HRP
T2 construct: also called hTyro3 ECD; full Tyro3 ECD
T2 sequence: T1 extracellular domain with A67V, V191I, G309A, H376R
Protocol: as §1

[3] = molecular target: T2, recombinant His-Strep tagged human …; test: BLI (Octet K2), IgG on AHC tips, hTyro3 ECD analyte, 1:1 global fit; KD Error 5,96E-10
Protocol: (§2) Affinity determinations were performed using biolayer interferometry on an Octet K2 instrument (Pall/ForteBio) equipped with anti-Human Kinetics (AHC) disposable fiber-optic biosensor tips. All experiments were conducted at 30° C. in the recommended Fortebio running buffer (PBS with 0.1% (w/v) bovine serum albumin (BSA) and 0.02% (v/v) Tween_20). This buffer was also used for dilution of ligand (here the antibody) and of the analyte (here the extra cellular domain of human Tyro3 protein). Samples in a 96-well microplates (No. Black polypropylene low binding plates, Greiner Bio-One, Frickenhausen, Germany) were agitated at 1000 rpm. […] Between measurements, the anti-human Tyro3 biosensor surfaces were regenerated by exposing them to 3 cycles of 5 sec in 10 mM glycine, pH 1.5, followed by 5 sec in PBS. Association phase was measured for 300 seconds, dissociation phase depending on the interaction for 300 seconds depending on dissociation step. […] Affinity, association (kon) and dissociation rate constants (koff) for each antibody were calculated applying a 1:1 interaction model fitting global, Rmax linked by sensor) on the ForteBio data analysis software 9.0.

[4] = molecular target: T2, recombinant His-Strep tagged human …; test: BLI (Octet K2), IgG on AHC tips, hTyro3 ECD analyte, 1:1 global fit; kon Error 1,34E+02
Protocol: as §2

[5] = molecular target: T2, recombinant His-Strep tagged human …; test: BLI (Octet K2), IgG on AHC tips, hTyro3 ECD analyte, 1:1 global fit; kdis(1/s); kdis Error 1,42E-05
Protocol: as §2

[6] = molecular target: T2, recombinant His-Strep tagged human …; test: BLI (Octet K2), 1:1 global fit; analyte concentration of this kobs not given
Protocol: Affinity determinations were performed using biolayer interferometry on an Octet K2 instrument (Pall/ForteBio) equipped with anti-Human Kinetics (AHC) disposable fiber-optic biosensor tips. All experiments were conducted at 30° C. in the recommended Fortebio running buffer (PBS with 0.1% (w/v) bovine serum albumin (BSA) and 0.02% (v/v) Tween_20). This buffer was also used for dilution of ligand (here the antibody) and of the analyte (here the extra cellular domain of human Tyro3 protein). Samples in a 96-well microplates (No. Black polypropylene low binding plates, Greiner Bio-One, Frickenhausen, Germany) were agitated at 1000 rpm. […] Between measurements, the anti-human Tyro3 biosensor surfaces were regenerated by exposing them to 3 cycles of 5 sec in 10 mM glycine, pH 1.5, followed by 5 sec in PBS. Association phase was measured for 300 seconds, dissociation phase depending on the interaction for 300 seconds depending on dissociation step. All measurements were corrected for baseline drift using the double reference substraction, that is to say by subtracting a control sensor without ligand exposed to each concentration of the extra cellular domain of human Tyro3 protein and a reference well with ligand submitted to running buffer only. Affinity, association (kon) and dissociation rate constants (koff) for each antibody were calculated applying a 1:1 interaction model fitting global, Rmax linked by sensor) on the ForteBio data analysis software 9.0.

[7] = molecular target: T2, recombinant His-Strep tagged human …; test: BLI (Octet K2), IgG on AHC tips, hTyro3 ECD analyte, 1:1 global fit; kon Error 1,04E+03
Protocol: as §2

[8] = molecular target: T2, recombinant His-Strep tagged human …; test: BLI (Octet K2), IgG on AHC tips, hTyro3 ECD analyte, 1:1 global fit; KD Error 4,35E-10
Protocol: as §2

[9] = molecular target: T2, recombinant His-Strep tagged human …; test: BLI (Octet K2), IgG on AHC tips, hTyro3 ECD analyte, 1:1 global fit; kdis(1/s); kdis Error 3,33E-05
Protocol: as §2

[10] = molecular target: T2, recombinant His-Strep tagged human …; test: BLI (Octet K2), IgG on AHC tips, hTyro3 ECD analyte, 1:1 global fit; KD Error 1,47E-09
Protocol: as §2

[11] = molecular target: T2, recombinant His-Strep tagged human …; test: BLI (Octet K2), IgG on AHC tips, hTyro3 ECD analyte, 1:1 global fit; kon Error 1,05E+03
Protocol: as §2

[12] = molecular target: T2, recombinant His-Strep tagged human …; test: BLI (Octet K2), IgG on AHC tips, hTyro3 ECD analyte, 1:1 global fit; kdis(1/s); kdis Error 9,54E-05
Protocol: as §2

[13] = molecular target: T2, recombinant His-Strep tagged human …; test: BLI (Octet K2), IgG on AHC tips, hTyro3 ECD analyte, 1:1 global fit; KD Error 4,92E-09
Protocol: as §2

[14] = molecular target: T2, recombinant His-Strep tagged human …; test: BLI (Octet K2), IgG on AHC tips, hTyro3 ECD analyte, 1:1 global fit; kdis(1/s); kdis Error 1,02E-04
Protocol: as §2

[15] = molecular target: T2, recombinant His-Strep tagged human …; test: BLI (Octet K2), IgG on AHC tips, hTyro3 ECD analyte, 1:1 global fit; kon Error 3,95E+02
Protocol: as §2

[16] = molecular target: T2, recombinant His-Strep tagged human …; test: BLI (Octet K2), IgG on AHC tips, hTyro3 ECD analyte, 1:1 global fit; KD Error 9,30E-10
Protocol: as §2

[17] = molecular target: T2, recombinant His-Strep tagged human …; test: BLI (Octet K2), IgG on AHC tips, hTyro3 ECD analyte, 1:1 global fit; kon Error 7,98E+02
Protocol: as §2

[18] = molecular target: T2, recombinant His-Strep tagged human …; test: BLI (Octet K2), IgG on AHC tips, hTyro3 ECD analyte, 1:1 global fit; kdis(1/s); kdis Error 4,43E-05
Protocol: as §2

[19] = molecular target: T2, recombinant His-Strep tagged human …; test: BLI (Octet K2), IgG on AHC tips, hTyro3 ECD analyte, 1:1 global fit; KD Error 6,89E-09
Protocol: as §2

[20] = molecular target: T2, recombinant His-Strep tagged human …; test: BLI (Octet K2), IgG on AHC tips, hTyro3 ECD analyte, 1:1 global fit; kon Error 8,90E+02
Protocol: as §2

[21] = molecular target: T2, recombinant His-Strep tagged human …; test: BLI (Octet K2), IgG on AHC tips, hTyro3 ECD analyte, 1:1 global fit; kdis(1/s); kdis Error 1,71E-04
Protocol: as §2

B1: IgG2710 (antibody, V domains shown)
VH: EVQLVQSGADVKKPGASLTISCQASGYTFTDYWISWVRQKPGKGLEWMGVINKYASWTRYGPSFQGHVTISADRSTATAYLQWRSLEASDTAMYYCVRSGGLTSGGTIPEYYQHWGPGTLVTVSS
VL: SYELTQPPSVSVSPGQTARITCSGDALPKKYAYWYQQKSGQAPVLVIYEDSKRPSGIPERFSGSSSGTMATLTISGAQVEDEADYYCYSQNPQGNYFVFGGGTKLTVL
notes: also called IGX2710
B1 was tested, and the “EC50 (read off the curve)” value [1] was roughly 0.01 µg/mL, the “EC50 (read off the curve)” value [2] was roughly 0.03 µg/mL and the Kd [3] was 73.5 nM. The kon [4] was 29000 M⁻¹ s⁻¹, the koff [5] was 0.00213 s⁻¹ and the kobs [6] was 0.00321 s⁻¹.

B2: IgG2713 (antibody, V domains shown)
VH: B1 VH with V50R, N52S, K53R, Y54H, A55G, W57Q, R59Y, S99A, L102Q
VL: B1 VL with S51H, P54A, Q90I, N91S, Q93A, F97G
notes: also called IGX2713
For B2, the binding result [1] was “binds”, the “EC50 (read off the curve)” value [2] was roughly 0.03 µg/mL and the kon [7] was 122000 M⁻¹ s⁻¹. It also gave a Kd [8] of 39.3 nM, a koff [9] of 0.00478 s⁻¹ and a kobs [6] of 0.00934 s⁻¹.

B3: IgG2413 (antibody, V domains shown)
VH: EVQLVQSGADVKKPGASLTISCQASGYTFTDYWISWVRQKPGKGLEWMGRIHTYQSSTRYGPSFQGHVTISADRSTATAYLQWRSLEASDTAMYYCVRHHSTTTANPYSSWGPGTLVTVSS
VL: B1 VL with S51D, P54L, Q90T, N91E, P92I, Q93N, F97A
notes: also called IGX2413
In the case of B3, the Kd [10] is reported as 101 nM, the “EC50 (read off the curve)” value [1] is reported as roughly 0.02 µg/mL and the kon [11] is reported as 97300 M⁻¹ s⁻¹. For the same binder, the “EC50 (read off the curve)” value [2] was roughly 0.02 µg/mL, the koff [12] was 0.00987 s⁻¹ and the kobs [6] was 0.0342 s⁻¹.

B4: IgG2711 (antibody, V domains shown)
VH: B1 VH with V50Q, N52R, K53G, Y54Q, A55H, W57S, R59L, S99H, G101A, L102S
VL: B1 VL with S51A, P54S, Q90L, N91S, P92D, Q93S
notes: also called IGX2711
B4 was tested, and the Kd [13] was 307 nM, the koff [14] was 0.00992 s⁻¹ and the binding result [1] was “binds”. The “EC50 (read off the curve)” value [2] was roughly 0.01 µg/mL, the kon [15] was 32300 M⁻¹ s⁻¹ and the kobs [6] was 0.014 s⁻¹.

B5: IgG2415 (antibody, V domains shown)
VH: B1 VH with V50Q, N52R, K53G, Y54P, W57A, R59H, S99H, G100Q, G101Q, L102Q
VL: B1 VL with S51K, P54I, Q90T, N91S, P92T, Q93G, F97M
notes: also called IGX2415
For B5, the binding result [1] was “binds”, the “EC50 (read off the curve)” value [2] was roughly 0.02 µg/mL and the Kd [16] was 70.2 nM. The kon [17] was 76800 M⁻¹ s⁻¹, the koff [18] was 0.00539 s⁻¹ and the kobs [6] was 0.0102 s⁻¹.

B6: IgG2414 (antibody, V domains shown)
VH: B1 VH with V50Q, K53R, Y54H, W57N, R59M, L102A
VL: B1 VL with S51W, P54A, N91E, P92R, Q93K
notes: also called IGX2414
With B6 the Kd [19] was 308 nM, the binding result [1] was “binds” and the kon [20] was 46900 M⁻¹ s⁻¹. For the same binder, the koff [21] was 0.0144 s⁻¹ and the kobs [6] was 0.0203 s⁻¹.

— patent US20180105596A1 (ELSALYS BIOTECH, published 2018)
